Where “and” joins values, the source holds several entries; their conditions need not be identical. Equal entries are not always repeated.
Assays:
[1] = Qualitative assessment of local injection sites (erythema, swelling size, induration); type: in vivo, Yucatan miniature pig (Sus scrofa domestica)
Description: The needle was inserted vertically into the marked injection site and the HVAI held in place by hand. Target needle insertion depth was ˜10 mm. Injections were timed using a stopwatch. Upon completion of the injection the needle was removed and the HVAI device discarded. Test solution back-leakage was then absorbed to a tared eye-spear for 30 seconds on the injection site and the weight of the eye spear was measured using an analytical balance. The margins of the injection site bleb were marked with a permanent marker and measured for length, width, and height using a digital caliper and recorded then photographed with the standard and 3D cameras. Caliper measurements and photographs were taken immediately post-injection. Local injection sites were qualitatively assessed and graded daily for erythema severity, swelling size appearance, and firmness, using a scoring system described in Table 4 Table 5, and Table 6, respectively.
Approximately, 24 hours post-dosing of the first injection, each animal was re-anesthetized, and injection sites assessed for erythema, induration and swelling, then photographed and returned to its cage.

[2] = Enhertu analytes (TAB, TADC, free payload) in skin tissue homogenates of injection site; type: in vivo, Yucatan miniature pig (Sus scrofa domestica); conditions: for Free Payload Result / TADC/TAB Ratio / Total Antibody Result: skin injection site homogenate, individual sites; for TADC/TAB ratio in tissue homogenates / Concentration of free payload in tissue homogenates of injection site / Concentration of total ADC (TADC) in tissue homogenates of injection site / Concentration of total antibody (TAB) in tissue homogenates of injection site / AUC(1-7), free payload in tissue homogenates of injection site / AUC(1-7), total ADC (TADC) in tissue homogenates of injection site / AUC(1-7), total antibody (TAB) in tissue homogenates of injection site / Cmax, free payload in tissue homogenates of injection site / Cmax, total ADC (TADC) in tissue homogenates of injection site / Cmax, total antibody (TAB) in tissue homogenates of injection site: skin
Description: Porcine serum was used as surrogate matrix to prepare calibration standards and quality controls for skin sample quantitation. Untreated blank porcine skin was provided for preparation of monitoring quality controls. The porcine skin was homogenized at an approximate ratio of 0.5 mL of buffer for every 100 mg of skin. […] The monitoring controls were analyzed during the method performance evaluation. The following were selected for monitoring in the assay (Table 83).
Porcine serum was used as surrogate matrix to prepare calibration standards and quality controls for the quantitation of skin samples. […] The porcine skin was homogenized at an approximate ratio of 0.5 mL of buffer for every 100 mg of skin. […] These were analyzed during the method performance evaluation.
This sample was divided vertically into two identical pieces. One skin sample was placed into a pre-weighed cryogenic tube and its weight was recorded then stored on dry ice prior to transfer to ≤−70° C. The other skin sample was processed for potential future histological assessment into OCT freezing media and frozen on dry ice.
Animals received two SC doses on their lower abdominal region.
Two cohorts were included in the follow-on study. […] Each animal had two full thickness skin biopsies taken post-mortem using a 12 mm punch. This sample was divided vertically into two identical pieces. One skin sample was placed into a pre-weighed cryogenic tube and its weight was recorded, then stored on dry ice prior to transfer to ≤−70° C. The other skin sample was processed into OCT molds for potential future histological assessment.
Tissue lysates were prepared based upon the weight of the sample at a ratio of 0.2 g/mL homogenization buffer (Tables 81 and 82). The total protein concentration of each homogenate was determined by BCA assay. The concentration of the total ADC (TADC), total antibody (TAB) and free payload (deruxtecan) in each sample was then normalized to the protein concentration and reported in μg analyte per mg total protein.
In this study, six animals were used. […] Two cohorts were included in this study. Cohort 1 was euthanized 24 hours after treatment, while Cohort 2 was euthanized 48 hours after exposure to the two test solutions.

[3] = Example 5: post-injection, 10 mL SC by HVAI
[4] = 24 hours after SC administration
[5] = 48 hours after SC administration
[6] = SC, day 1, individual animal, listed as ADC
[7] = SC, day 2, individual animal, listed as ADC
[8] = SC, day 7, individual animal, listed as ADC
[9] = SC, individual series, listed as ADC
[10] = SC, 24 h post-injection, individual animal, listed as ADC
[11] = SC, 48 h post-injection, individual animal, listed as ADC
[12] = SC, 168 h post-injection, individual animal, listed as ADC

## Sacituzumab govitecan [Trodelvy]
[1]; [3]
  Induration (score): 3.3 ± 0.3
  Swelling Size (score): 3.1 ± 0.3
[1]; minipig, 10 mL SC by HVAI
  Induration at the 24, 48 or 72 hour timepoints: No induration was detected
  Swelling at the 24, 48 or 72 hour timepoints: No swelling was detected
[1]; minipig, 10 mL SC by HVAI, immediately post-injection, three evaluators, scale 0-4
  Swelling Score (Mean ± SEM): 3.1 ± 0.3
[1]; minipig, 10 mL SC by HVAI, immediately post-injection, two evaluators, scale 0-4
  Induration Score (Mean ± SEM): 3.3 ± 0.3
[1]; p<0.05, 10 mL SC
  Hardness (induration) of post-injection blebs compared with blebs of the co-mix with rHuPH20: significantly firmer
[2]; [4]
  Mean ADC in minipig skin: 24.21
  Mean antibody (Ab) in minipig skin: 27.65
  Mean payload in minipig skin: 0.02
[2]; [5]
  Mean ADC in minipig skin: 6.92
  Mean antibody (Ab) in minipig skin: 7.97
  Mean payload in minipig skin: 0.00
[2]; SC, 24 h post-injection
  Mean skin concentration, Free Payload: 0.02 μg/mg protein
  Mean skin concentration, Total ADC (TADC): 24.21 μg/mg protein
  Mean skin concentration, Total Antibody (TAB): 27.65 μg/mg protein
[2]; SC, 48 h post-injection
  Mean skin concentration, Free Payload: 0.0042 μg/mg protein
  Mean skin concentration, Total ADC (TADC): 6.92 μg/mg protein
  Mean skin concentration, Total Antibody (TAB): 7.97 μg/mg protein
[2]; SC, 168 h post-injection
  Mean skin concentration, Free Payload: 0.0004 μg/mg protein
  Mean skin concentration, Total ADC (TADC): 0.57 μg/mg protein
  Mean skin concentration, Total Antibody (TAB): 0.73 μg/mg protein
[2]; [6]
  Concentration of free payload in the skin of minipigs: 0.026 ug/mg protein and 0.020 ug/mg protein and 0.011 ug/mg protein
  Total ADC concentration in the skin of minipigs: 38.48 ug/mg protein and 22.00 ug/mg protein and 12.15 ug/mg protein
  Total antibody concentration in the skin of minipigs: 44.05 ug/mg protein and 22.63 ug/mg protein and 16.28 ug/mg protein
[2]; SC, day 1, mean
  Concentration of free payload in the skin of minipigs: 0.02 ug/mg protein
  Total ADC concentration in the skin of minipigs: 24.21 ug/mg protein
  Total antibody concentration in the skin of minipigs: 27.65 ug/mg protein
[2]; [7]
  Concentration of free payload in the skin of minipigs: 0.003 ug/mg protein and 0.005 ug/mg protein (2×)
  Total ADC concentration in the skin of minipigs: 5.97 ug/mg protein and 6.98 ug/mg protein and 7.80 ug/mg protein
  Total antibody concentration in the skin of minipigs: 7.70 ug/mg protein and 8.07 ug/mg protein and 8.14 ug/mg protein
[2]; SC, day 2, mean
  Concentration of free payload in the skin of minipigs: 0.00 ug/mg protein
  Total ADC concentration in the skin of minipigs: 6.92 ug/mg protein
  Total antibody concentration in the skin of minipigs: 7.97 ug/mg protein
[2]; [8]
  Concentration of free payload in the skin of minipigs: 0.001 ug/mg protein and 0.000 ug/mg protein (2×)
  Total ADC concentration in the skin of minipigs: 0.69 ug/mg protein and 0.48 ug/mg protein and 0.55 ug/mg protein
  Total antibody concentration in the skin of minipigs: 0.68 ug/mg protein and 0.72 ug/mg protein and 0.79 ug/mg protein
[2]; SC, day 7, mean
  Concentration of free payload in the skin of minipigs: 0.00 ug/mg protein
  Total ADC concentration in the skin of minipigs: 0.57 ug/mg protein
  Total antibody concentration in the skin of minipigs: 0.73 ug/mg protein
[2]; [9]
  AUC1-7, free payload in skin: 0.024 ug*day/mL (2×) and 0.021 ug*day/mL
  AUC1-7, total ADC in skin: 38.87 µg·days/mL and 33.14 µg·days/mL and 30.85 µg·days/mL
  AUC1-7, total antibody in skin: 46.85 µg·days/mL and 37.33 µg·days/mL and 34.52 µg·days/mL
  Cmax, free payload in skin: 26 ng/mL and 20 ng/mL and 11 ng/mL
  Cmax, total ADC in skin: 38480 ng/mL and 22000 ng/mL and 12150 ng/mL
  Cmax, total antibody in skin: 44050 ng/mL and 22630 ng/mL and 16280 ng/mL
  AUC(1-7), free payload in tissue homogenates of injection site: 0.024 ug*day/mL (2×) and 0.021 ug*day/mL
  AUC(1-7), total ADC (TADC) in tissue homogenates of injection site: 38.87 µg·days/mL and 33.14 µg·days/mL and 30.85 µg·days/mL
  AUC(1-7), total antibody (TAB) in tissue homogenates of injection site: 46.85 µg·days/mL and 37.33 µg·days/mL and 34.52 µg·days/mL
  Cmax, free payload in tissue homogenates of injection site: 26 ng/mL and 20 ng/mL and 11 ng/mL
  Cmax, total ADC (TADC) in tissue homogenates of injection site: 38480 ng/mL and 22000 ng/mL and 12150 ng/mL
  Cmax, total antibody (TAB) in tissue homogenates of injection site: 44050 ng/mL and 22630 ng/mL and 16280 ng/mL
[2]; SC, mean
  AUC1-7, free payload in skin: 0.02 µg·days/mL
  AUC1-7, total ADC in skin: 34.29 µg·days/mL
  AUC1-7, total antibody in skin: 39.57 µg·days/mL
  Cmax, free payload in skin: 20 ng/mL
  Cmax, total ADC in skin: 24210 ng/mL
  Cmax, total antibody in skin: 27650 ng/mL
  AUC(1-7), free payload in tissue homogenates of injection site: 0.02 µg·days/mL
  AUC(1-7), total ADC (TADC) in tissue homogenates of injection site: 34.29 µg·days/mL
  AUC(1-7), total antibody (TAB) in tissue homogenates of injection site: 39.57 µg·days/mL
  Cmax, free payload in tissue homogenates of injection site: 20 ng/mL
  Cmax, total ADC (TADC) in tissue homogenates of injection site: 24210 ng/mL
  Cmax, total antibody (TAB) in tissue homogenates of injection site: 27650 ng/mL
[2]; minipig skin, SC
  ADC/Ab ratio, mean AUC1-7: 87%
  ADC/Ab ratio, mean Cmax: 88%
  ADC/Payload ratio, mean AUC1-7: 147791%
  ADC/Payload ratio, mean Cmax: 128404%
[2]; SC, 24 h, listed as ADC
  Free Payload Result: 124000 pg/mL and 67800 pg/mL and 138000 pg/mL
  TADC/TAB Ratio: 0.97 and 0.75 and 0.87
  Total Antibody Result: 143 µg/mL and 97.8 µg/mL and 237 µg/mL
[2]; SC, 48 h, listed as ADC
  Free Payload Result: 21700 pg/mL and 29500 pg/mL and 33800 pg/mL
  TADC/TAB Ratio: 0.77 and 0.86 and 0.96
  Total Antibody Result: 50.2 µg/mL and 51.7 µg/mL and 58.1 µg/mL
[2]; SC, 168 h, listed as ADC
  Free Payload Result: 3320 pg/mL and 2240 pg/mL and 3520 pg/mL
  TADC/TAB Ratio: 1.00 and 0.67 and 0.70
  Total Antibody Result: 4.43 µg/mL and 4.86 µg/mL and 5.80 µg/mL
[2]; SC, 24 h post injection, individual animal, listed as ADC
  TADC/TAB ratio in tissue homogenates: 0.87 and 0.97 and 0.75
[2]; SC, 24 h post injection, mean
  TADC/TAB ratio in tissue homogenates: 1.14
[2]; [10]
  Concentration of free payload in tissue homogenates of injection site: 0.026 μg/mg protein and 0.020 μg/mg protein and 0.011 μg/mg protein
  Concentration of total ADC (TADC) in tissue homogenates of injection site: 38.48 μg/mg protein and 22.00 μg/mg protein and 12.15 μg/mg protein
  Concentration of total antibody (TAB) in tissue homogenates of injection site: 44.05 μg/mg protein and 22.63 μg/mg protein and 16.28 μg/mg protein
[2]; SC, 24 h post-injection, mean
  Concentration of free payload in tissue homogenates of injection site: 0.02 μg/mg protein
  Concentration of total ADC (TADC) in tissue homogenates of injection site: 24.21 μg/mg protein
  Concentration of total antibody (TAB) in tissue homogenates of injection site: 27.65 μg/mg protein
[2]; SC, 48 h post injection, individual animal, listed as ADC
  TADC/TAB ratio in tissue homogenates: 0.78 and 0.86 and 0.96
[2]; SC, 48 h post injection, mean
  TADC/TAB ratio in tissue homogenates: 1.15
[2]; [11]
  Concentration of free payload in tissue homogenates of injection site: 0.003 μg/mg protein and 0.005 μg/mg protein (2×)
  Concentration of total ADC (TADC) in tissue homogenates of injection site: 5.97 μg/mg protein and 6.98 μg/mg protein and 7.80 μg/mg protein
  Concentration of total antibody (TAB) in tissue homogenates of injection site: 7.70 μg/mg protein and 8.07 μg/mg protein and 8.14 μg/mg protein
[2]; SC, 48 h post-injection, mean
  Concentration of free payload in tissue homogenates of injection site: 0.00 μg/mg protein
  Concentration of total ADC (TADC) in tissue homogenates of injection site: 6.92 μg/mg protein
  Concentration of total antibody (TAB) in tissue homogenates of injection site: 7.97 μg/mg protein
[2]; SC, 168 h post injection, individual animal, listed as ADC
  TADC/TAB ratio in tissue homogenates: 1.01 and 0.67 and 0.70
[2]; SC, 168 h post injection, mean
  TADC/TAB ratio in tissue homogenates: 1.27
[2]; [12]
  Concentration of free payload in tissue homogenates of injection site: 0.001 μg/mg protein and 0.000 μg/mg protein (2×)
  Concentration of total ADC (TADC) in tissue homogenates of injection site: 0.69 μg/mg protein and 0.48 μg/mg protein and 0.55 μg/mg protein
  Concentration of total antibody (TAB) in tissue homogenates of injection site: 0.68 μg/mg protein and 0.72 μg/mg protein and 0.79 μg/mg protein
[2]; SC, 168 h post-injection, mean
  Concentration of free payload in tissue homogenates of injection site: 0.00 μg/mg protein
  Concentration of total ADC (TADC) in tissue homogenates of injection site: 0.57 μg/mg protein
  Concentration of total antibody (TAB) in tissue homogenates of injection site: 0.73 μg/mg protein

From US20260069707A1, “COMBINATION THERAPY WITH ANTIBODY-DRUG CONJUGATES AND HYALURONIDASES” (HALOZYME, INC., priority 2024, published 2026)
